PMC3131183

What was measured:
Test in all cases: FRET or BRET
[1] = target: Gγ subunit (human (endogenous in PMNs)) (UniProt P59768)
[2] = target: Hck (haemopoietic cell kinase) (human (endogenous in PMNs)) (UniProt P08631)
[3] = target: β-arrestin-1 (human (endogenous in PMNs)) (UniProt P49407)
Chain of UniProt P49407 (P49407 whole entry): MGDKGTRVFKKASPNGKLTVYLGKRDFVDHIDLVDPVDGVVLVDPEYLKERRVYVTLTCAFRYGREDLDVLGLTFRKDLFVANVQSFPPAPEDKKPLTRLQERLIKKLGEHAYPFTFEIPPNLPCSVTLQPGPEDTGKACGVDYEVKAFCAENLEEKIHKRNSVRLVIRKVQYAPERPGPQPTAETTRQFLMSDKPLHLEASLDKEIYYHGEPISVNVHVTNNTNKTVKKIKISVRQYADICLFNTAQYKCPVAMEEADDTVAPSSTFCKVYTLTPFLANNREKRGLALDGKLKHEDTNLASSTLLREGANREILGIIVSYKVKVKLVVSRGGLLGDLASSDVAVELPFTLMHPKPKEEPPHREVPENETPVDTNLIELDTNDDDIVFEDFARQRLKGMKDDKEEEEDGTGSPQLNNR

Chain of UniProt P08631 (P08631 whole entry): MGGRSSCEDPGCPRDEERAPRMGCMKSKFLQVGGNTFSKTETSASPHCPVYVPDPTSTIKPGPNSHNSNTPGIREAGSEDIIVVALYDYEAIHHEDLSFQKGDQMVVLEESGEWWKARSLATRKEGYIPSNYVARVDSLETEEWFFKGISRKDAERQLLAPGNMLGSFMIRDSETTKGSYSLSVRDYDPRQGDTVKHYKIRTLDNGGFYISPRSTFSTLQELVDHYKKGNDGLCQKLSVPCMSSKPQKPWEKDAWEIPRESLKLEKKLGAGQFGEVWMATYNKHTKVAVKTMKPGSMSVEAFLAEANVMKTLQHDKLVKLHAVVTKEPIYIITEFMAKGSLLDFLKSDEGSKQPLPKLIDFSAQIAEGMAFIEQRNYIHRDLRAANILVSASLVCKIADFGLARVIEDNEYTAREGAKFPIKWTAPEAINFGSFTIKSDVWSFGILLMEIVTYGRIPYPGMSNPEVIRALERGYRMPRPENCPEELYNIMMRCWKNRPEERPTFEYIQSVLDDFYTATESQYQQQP

Substance	FRET efficiency [1]	FRET efficiency [2]	FRET efficiency [3]
Gβ subunit (from UniProt P62873 1-340) (natural protein)	58%	54%	
clathrin heavy chain (from UniProt Q00610 1-1675) (natural protein)			38%
